Source: paper PMC2695768

Target: influenza virus nucleoprotein (NP), A/Victoria/3/75, wild type (influenza A virus A/Victoria/3/75)
Experiment: cryo-EM structure

Substance: influenza virus nucleoprotein (NP), A/Victoria/3/75, wild type (natural protein)
- stoichiometry N: 9
